In US20250361288A1 (Gilead, published 2025):
Residue numbers refer to the chain shown, from its start. Names and notes keep the numbering of the source. Read-outs that look alike come from different tables or passages of the source.

B1: LIGHT-1 (ligand)
chain: DGPAGSWEQLIQERRSHEVNPAAHLTGANSSLTGSGGPLLWETQLGLAFLRGLSYHDGALVVTKAGYYYIYSKVQLGGMGCPLGLASTITHGLYKRTPRYPEELELLVSQQSPCGRATSSSRVWQDSSFLGGVVHLEAGEKVVVRVLDERLVRLLDGTRSYFGAFMV
notes: Printed mutations: V152M, W198Q, R228L; Soluble protein carries an N-terminal His tag
B2: human HVEM extracellular domain fused with an Fc fragment at the C-terminus (Fc fusion, UniProt Q92956 39-202, looked up)
chain: LPSCKEDEYPVGSECCPKCSPGYRVKEACGELTGTVCEPCPPGTYIAHLNGLSKCLQCQMCDPAMGLRASRNCSRTENAVCGCSPGHFCIVQDGDHCAACRAYATSSPGQRVQKGGTESQDTLCQNCPPGTFSPNGTLEECQHQTKCSWLVTKAGAGTSSSHWV
notes: extracellular domain; Bought; also called hHVEM; not shown: Fc fragment at the C-terminus
B3: LIGHT-7 (ligand)
chain: B1 chain with M79V, P82R, Q125W, L147Q, L155R, R159H
notes: Printed mutations: P155R, L220Q, R232H; Soluble protein carries an N-terminal His tag
B4: LIGHT-3 (ligand)
chain: B1 chain with G77A, M79V, Q125W, L147S, L155R
notes: Printed mutations: G150A, L220S; Soluble protein carries an N-terminal His tag
B5: LIGHT-2 (ligand)
chain: B1 chain with M79V, R116S
notes: Printed mutations: R189S, W198Q, R228L; Soluble protein carries an N-terminal His tag

Assays:
[1] = molecular target: T1, mouse HVEM extracellular domain fused with an Fc fragment at the C-terminus (mouse, UniProt Q80WM9 39-206, limits assumed); experiment: phage ELISA
T1 construct: extracellular domain; Bought; also called mHVEM; not shown: Fc fragment at the C-terminus
T1 sequence (looked up): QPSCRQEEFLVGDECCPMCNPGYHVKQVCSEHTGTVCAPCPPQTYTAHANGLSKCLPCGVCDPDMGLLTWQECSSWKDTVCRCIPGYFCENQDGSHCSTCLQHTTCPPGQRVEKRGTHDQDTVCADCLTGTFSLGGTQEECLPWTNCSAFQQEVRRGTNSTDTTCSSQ
Method in brief: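 Supernatants from fourth-round clones rescued with helper phage were applied to plates coated with 1 μg/ml target for 1 h at room temperature. Bound phage detected with HRP anti-M13 and TMB at OD450; clones were called positive when the target/BSA ratio was >3.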

[2] = molecular target: T2, human LTβR extracellular domain fused with an Fc fragment at the C-terminus (human, UniProt P36941 31-227); experiment: ELISA on coated target-Fc
T2 construct: extracellular domain; Bought; also called hLTβR; not shown: Fc fragment at the C-terminus
T2 sequence (P36941 31-227): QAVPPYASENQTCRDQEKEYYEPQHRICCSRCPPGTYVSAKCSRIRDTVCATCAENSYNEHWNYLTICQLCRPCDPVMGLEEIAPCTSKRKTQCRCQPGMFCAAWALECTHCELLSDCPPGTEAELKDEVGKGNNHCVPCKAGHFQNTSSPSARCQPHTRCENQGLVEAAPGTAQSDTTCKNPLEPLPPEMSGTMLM
Description: (§1) Nunc MaxiSorp 96-well plates (Thermofisher) were coated with target proteins (1 μg/ml), and then blocked with 2% BSA-PBS buffer for one hour. Serial dilutions of the LIGHT muteins were added with a maximum concentration of 200 ng/ml. The plates were incubated for one hour, washed four times with PBST, and then incubated with mouse anti-His tag antibody (#105327, Sino Biological) for 1 hour. The plates were further incubated with HRP-conjugated goat anti-mouse secondary antibody (#SSA006, Sino Biological) before being washed three times with PBST and treated with TMB substrate (#34029, ThermoFisher). The plates were read at 450 nm on a SpectraMax M5 microplate reader (Molecule Devices). The ELISA results were analyzed using GraphPad Prism 9.0 software and the EC50s (half maximal effective concentration) were summarized in Table 5-1 and Table 5-2.

[3] = molecular target: T3, mouse LTβR extracellular domain fused with an Fc fragment at the C-terminus (mouse, UniProt P50284 31-223); experiment: ELISA on coated target-Fc
T3 construct: extracellular domain; Bought; also called mLTβR; not shown: Fc fragment at the C-terminus
T3 sequence (P50284 31-223): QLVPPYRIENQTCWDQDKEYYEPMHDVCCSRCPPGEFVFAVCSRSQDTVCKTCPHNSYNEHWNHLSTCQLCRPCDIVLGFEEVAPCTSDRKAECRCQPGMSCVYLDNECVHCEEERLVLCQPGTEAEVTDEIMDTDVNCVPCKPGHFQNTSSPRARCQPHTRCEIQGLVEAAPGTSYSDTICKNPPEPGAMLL
Description: as §1

[4] = molecular target: T2, human LTβR extracellular domain fused …; experiment: ELISA on coated target-Fc; remark: listed apart in the source
Description: as §1

[5] = molecular target: T3, mouse LTβR extracellular domain fused …; experiment: ELISA on coated target-Fc; remark: listed apart in the source
Description: as §1

[6] = molecular target: B2; experiment: ELISA on coated target-Fc, Table 5-1
Description: as §1

LIGHT (74-240) = molecular target: T4, LIGHT (74-240) (human, UniProt O43557 74-240); experiment: ELISA on coated target-Fc
T4 construct: Soluble protein carries an N-terminal His tag; also called wild-type human LIGHT; LIGHT (74-240) (wt)
Description: as §1

Binder	binding result [1]	EC50 [2] [µg/mL]	EC50 [3] [µg/mL]	EC50 [4] [nM]	EC50 [5] [nM]	binding result [6]	binding result (LIGHT (74-240))
B1	no binding	0.0493	0.0605	0.262	0.8	no binding	
B2							binds
B3	binds	0.109	0.156			no binding	
B4	binds	0.0436	0.0401			no binding	
B5	no binding	0.0762		0.328	2.06	no binding	
